Measured values taken from US12522635B2, “Amyloid peptide variants” (Loyola Marymount University, priority 2019, dated 2026).
Where no end group is shown, it is not given here.

Tests used:
human IAPP (hIAPP) [1] = biological target: T1, human IAPP (hIAPP) (Homo sapiens, UniProt P10997); assay: Thioflavin T binding assay of hIAPP aggregation when mixed with IAPP peptides; assay type: biochemical; conditions: for inhibition of hIAPP aggregation, thioflavin T binding: hIAPP mixed with peptide, incubated at 37° C. with shaking; for inhibition of hIAPP aggregation (summary statement): peptide mixed with hIAPP, no single assay (thioflavin T and AFM)
T1 construct: This 37 amino acid polypeptide is co-secreted from pancreatic β-islet cells with insulin
T1 sequence (P10997 34-70 limits assumed): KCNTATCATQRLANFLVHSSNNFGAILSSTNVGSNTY
From the text: Any of a number of assays known to the art can be used to evaluate the ability of IAPP peptides to inhibit hIAPP aggregation and/or protect cells from hIAPP toxicity. Thioflavin T (ThT) binding is one such technique for identifying amyloid formation in real time. Human IAPP is known to bind thioflavin T during aggregation and amyloid formation, and upon binding to amyloid fibrils ThT will give a strong fluorescence signal at approximately 482 nm when excited at 450 nm. ThT fluorescence correlates linearly with amyloid concentration in a sample and therefore can be used to determine the amount of aggregation in a sample. This technique can therefore be used for identifying substances with amyloid-inhibiting potential when such substances are mixed with human IAPP under conditions known to result in the formation of aggregates by hIAPP. Determining the extent of aggregation can also be determined using other techniques, such as Atomic Force Microscopy (AFM), which can provide information about particle dimensions, shape, and substructure with nanometer resolution. In the foregoing assays and others that can be used by one of skill in the art, significant inhibition can be determined using a t-test by measuring the difference between hIAPP and hIAPP combined with an IAPP peptide.
To identify IAPP peptides having inhibitory potential against hIAPP aggregation, the peptides shown in FIG. 1 from a number of species (cow, degu, guinea pig, horse, pig, rat, and sheep[…]) were mixed with hIAPP at a 2:1 molar ratio of animal peptide to hIAPP and incubated under conditions known to promote hIAPP aggregation and fibril formation. IAPP alone, or hIAPP mixed with an animal IAPP, was pipetted into a glass tube and the HFIP was removed under speed-vacuum. The resulting peptide sample was dissolved in 20 mM Tris buffer pH 7.4.
37 μM human IAPP was mixed with 75 μM of each indicated animal IAPP. Aggregation was initiated by incubating samples at 37° C. with shaking at 200 rpm for 40 minutes. At indicated time points, a 17 μL aliquot of each sample was mixed with 663 μL of 50.0 μM thioflavin T in 20 mM Tris buffer (pH 7.4). Thioflavin T fluorescence emission was then recorded at 488 nm using a Hitachi F-7000 fluorescence spectrophotometer.
After 40 minutes, these samples were monitored for their ability to bind thioflavin T (see FIG. 2) and their ability to form fibrils as identified with atomic force microscopy.
Human IAPP (37 μM) was mixed with each of the indicated Weddell seal variants (at 75 μM) and incubated for 30 minutes at 37° C. with shaking at 200 rpm. The Weddell seal IAPP peptides were likewise subjected to atomic force microscopy as described in Example 2.
Human IAPP was mixed with each of the indicated raccoon variants and incubated at 37° C. with shaking.
Human IAPP was mixed with each of the indicated chicken variants and incubated at 37° C. with shaking. […] However, it was able to protect cells in MTT assays, so it is believed to inhibit formation of toxic oligomers while having a lesser effect on inhibiting the formation of fibers (which are less toxic and less able to bind ThT).
Human IAPP was mixed with each of the indicated chicken variants and incubated at 37° C. with shaking.

RIN-m cells = assay: MTT viability assay, peptide alone or mixed with hIAPP; assay type: cell-based; conditions: hIAPP mixed with peptide 1:1, MTT assay
From the text: Cytoprotection can likewise be measured by a number of assays known to the art. One such assay is the MTT assay, which is a colorimetric assay for assessing cell metabolic activity. NAD(P)H-dependent cellular oxidoreductase enzymes in the cytosolic compartment of a cell reduces the tetrazolium dye MTT 3-(4,5-dimethylthiazol-2-yl)-2,5-diphenyltetrazolium bromide to an insoluble form, formazan, which has a purple color. The reduction of MTT (and other tetrazolium dyes) depends on the cellular metabolic activity, so a loss of color in the course of performing an MTT assay indicates low metabolic activity, and is thus an indicator of cell damage and death.
To test cell viability, a MTT colorimetric assay measuring the conversion of yellow tetrazolium salt into purple formazan crystal catalyzed by a mitochondrial reductase was used. Cell viability studies were performed using RIN-m cells (ATCC, CRL-2057). An equal number of RIN-m cells were plated in triplicate and incubated overnight in 96-well plates. The next day, fresh RPMI-1640 with phenol red supplemented with 10% FBS was added to cells. Hexafluoroisopropanol (HFIP) was removed from each individual human and animal IAPP using a centrivap concentrator (LabOnco). All IAPP peptide samples were re-suspended in RPMI-1640 with 10% FBS. To ensure even re-suspension, each resulting IAPP-containing vial was scraped with a pipette tip six times and vortexed (Vortex Genie Mixer) for 15 seconds. The whole process, from drying each IAPP peptide to adding each IAPP peptide to the cells was uniform to ensure that each sample was incubated for an equal amount of time with each IAPP peptide. IAPP peptides were added to cells and incubated for 46 hours at 37° C. Post-incubation, the media in each well was replaced by fresh DMEM/F-12 without phenol red. MTT (3-(4,5-dimethyl-2-thiazolyl)-2,5-diphenyl-tetrazolium bromide) was added into each well and incubated at 37° C. for 2 hours. Formazan crystals, formed on the bottom of the wells, were re-suspended in solubilization buffer (20% SDS and 50% dimethylformamide). The absorbance in each well was taken at 570 nm using a Multiskan FC Microplate Photometer (Thermos Fisher Scientific). Media were obtained from ATCC. All incubations took place in a water jacketed incubator in 5% carbon dioxide at 37° C. (Shell Lab).
The MTT viability assay was used to measure cell viability of RIN-m cells upon addition of hIAPP alone, the addition of each animal IAPP peptide alone, and hIAPP mixed with each animal IAPP peptide (results shown in FIG. 5). RIN-m cells alone were used as a control and set to 100% cell viability. […] Addition of raccoon IAPP to hIAPP increased the cell viability from 55% to an average of 72% (p=0.005705). Addition of chicken IAPP variant to hIAPP increased cell viability to an average of 76% (p=0.013556).

human IAPP (hIAPP) [2] = biological target: T1, human IAPP (hIAPP); assay: Atomic force microscopy (AFM) of hIAPP fibril formation when mixed with IAPP peptides; assay type: biochemical; conditions: 37 μM hIAPP and 75 μM peptide, 37° C. with shaking for 40 minutes
Description: Samples labeled with hIAPP contained 40 μM hIAPP. The sample with pramlintide and hIAPP contained a 2:1 molar mixture (80 μM Pramlintide mixed with 40 μM hIAPP). The samples with raccoon IAPP and Pramlintide alone contained 40 μM of the indicated peptides. Each sample was incubated for 40 minutes at 37° C. with shaking; conditions known to promote hIAPP amyloid formation. All scans show raw data with no flattening and are […].
Each sample contained 37 μM hIAPP and 75 μM of the indicated peptide. Samples were incubated at 37° C. with shaking for 40 minutes. All scans show raw data with no flattening and are […].
Each sample contained 37 μM hIAPP mixed with 37 μM of the indicated peptide. Samples were incubated at 37° C. with shaking for 30 minutes before depositing each sample onto freshly cleaved mica.
Samples of hIAPP with or without animal IAPP were prepared as described in Example 1 and were then incubated with shaking at 37° C. for 40 minutes. After this incubation, 17 μL of each sample was deposited onto freshly cleaved mica. Samples were incubated for 5 minutes at room temperature before washing with 200 μL sterile water. After drying, the samples were scanned using an MFP-3D atomic force microscope (Asylum Research) set on A/C mode and a 240 m silicon cantilever (Olympus).
Many of the animal IAPP variants are known to likewise form fibrils and yield amyloid-plaques when scanned via AFM. […] This is in spite of the fact that all of these IAPP peptides (except polar bear IAPP) are known to aggregate and form fibrils themselves under these or similar conditions

inhibition of hIAPP aggregation, thioflavin T binding (human IAPP (hIAPP) [1]) | inhibition of hIAPP fibril formation, AFM (human IAPP (hIAPP) [2]) | Substance | rescue / protection of cells from hIAPP toxicity (words) (RIN-m cells) | inhibition of hIAPP aggregation (summary statement) (human IAPP (hIAPP) [1])
inhibited hIAPP aggregation | – | KCNTATCATQRLANFLLRSSNNLGAILSPTNVGSNTY (Procyon lotor mutation) [Rac_V8A] | – | –
inhibited hIAPP aggregation | – | KCNTATCVTQRLADFLLRSSSNIGAIYSPTNVGSNTY (Gallus gallus mutation) [Ch_V16L] | rescued cells from hIAPP-induced cytotoxicity | –
inhibited hIAPP aggregation | – | KCNTATCVTQRLADFLVRSSSNIGAILSPTNVGSNTY (Gallus gallus mutation) [Ch_Y26L] | rescued cells from hIAPP-induced cytotoxicity | –
inhibited hIAPP aggregation | – | KCNTATCVTQRLANFLVRSSNNLGAILSPTNVGSNTY (Procyon lotor mutation) [Rac_L16V] | – | –
– | did not inhibit hIAPP aggregation | R8-30: truncated raccoon IAPP peptide of FIG. 19; sequence not printed in the text (VTQRLANFLLRSSNNLGAILSPT) | – | –

Second part, the substance before the results:

Substance | inhibition of hIAPP aggregation, thioflavin T binding (human IAPP (hIAPP) [1]) | inhibition of hIAPP fibril formation, AFM (human IAPP (hIAPP) [2]) | rescue / protection of cells from hIAPP toxicity (words) (RIN-m cells) | inhibition of hIAPP aggregation (summary statement) (human IAPP (hIAPP) [1])
KCNTATCATQRLANFLVRSSNNFGAILSPTNVGSNTY (KTATCATQRLANFLVHSSNNLGAILSPTNVGSNTY; Leptonychotes weddellii mutation) [WS_RP] | – | – | rescued cells from hIAPP toxicity | –
KCNTATCVTQRLADFLLRSSNNLGAILSPTNVGSNTY (Procyon lotor mutation) [Rac_N13D] | inhibited hIAPP aggregation | – | – | –
KCNTATCVTQRLANFLLRSSNNIGAILSPTNVGSNTY (Procyon lotor mutation) [Rac_L22I] | inhibited hIAPP aggregation | – | – | –
KCNTATCVTQRLANFLLRSSNNLGAILSPT (ends and bridges not checked; cysteine pairing not given here) [R1-30] | inhibited hIAPP aggregation | – | rescued cells from hIAPP-induced cytotoxicity | –
R1-23: truncated raccoon IAPP peptide of FIG. 19; sequence not printed in the text (KCNTATCVTQRLANFLLRSSNNL) | – | did not inhibit hIAPP aggregation | – | –
R8-23: truncated raccoon IAPP peptide of FIG. 19; sequence not printed in the text (VTQRLANFLLRSSNNL) | – | did not inhibit hIAPP aggregation | – | –
SEQ ID NO:21: raccoon IAPP peptide with amino acids removed from the N-terminal end (FLLRSSNNLGAILSPTNVGSNTY; Procyon lotor truncation) | – | – | failed to inhibit aggregation of hIAPP or reduce its cytotoxicity | failed to inhibit aggregation of hIAPP or reduce its cytotoxicity
SEQ ID NO:22: raccoon IAPP peptide with amino acids removed from the middle (FLLRSSNNLGAILSPTN; Procyon lotor truncation) | – | – | failed to inhibit aggregation of hIAPP or reduce its cytotoxicity | failed to inhibit aggregation of hIAPP or reduce its cytotoxicity
SEQ ID NO:23: raccoon IAPP peptide with amino acids removed from the N-terminal end (ATQRLANFLLRSSNNLGAILSPTNVGSNTY; Procyon lotor truncation) | – | – | failed to inhibit aggregation of hIAPP or reduce its cytotoxicity | failed to inhibit aggregation of hIAPP or reduce its cytotoxicity
SEQ ID NO:24: raccoon IAPP peptide with amino acids removed from the middle (VTQRLANFLLRSSNNLGAILSPT; Procyon lotor truncation) | – | – | failed to inhibit aggregation of hIAPP or reduce its cytotoxicity | failed to inhibit aggregation of hIAPP or reduce its cytotoxicity
SEQ ID NO:25: raccoon IAPP peptide with amino acids removed from the middle (VTQRLANFLLRSSNNL; Procyon lotor truncation) | – | – | failed to inhibit aggregation of hIAPP or reduce its cytotoxicity | failed to inhibit aggregation of hIAPP or reduce its cytotoxicity
